Test results published in patent US20070293425A1 (JULIUS MAXIMILIANS UNIVERSITAT WURZBURG, published 2007).

Experiments:
[1] = biological target: T1, Activin receptor II ectodomain; experiment: BIAcore, immobilised ARII ectodomain, BMP-2 as analyte
T1 construct: extracellular domain; Biotinylated, immobilised on a streptavidin chip; also called ARII; type II receptor ARII
Method: (§1) Proteins were biotinylated and immobilised to streptavidin-coated sensor chip CM5 (Kirsch et al., 2000a). The extracellular domain of BRIA, BRIB and ARII were prepared as described (Kirsch et al., 2000a). […] Interaction with analyte was measured on a BIAcore 2000 system (Kirsch et al., 2000a). Evaluation of sensorgrams (Biaevaluation software 2.0) yielded kinetic constants for complex formation (kₒₙ) and dissociation (koff). […] Apparent dissociation constants KD were either calculated as KD=koff/kₒₙ or by evaluating dose dependency of equilibrium binding.

[2] = biological target: T2, BRIBEC, extracellular domain of BMPR-IB; experiment: BIAcore, immobilised BRIB ectodomain, BMP-2 as analyte
T2 construct: extracellular domain; Biotinylated, immobilised on a streptavidin chip; also called BRIB receptor
Method: as §1

[3] = biological target: T3, Chordin CR1; experiment: BIAcore, immobilised Chordin CR1, BMP-2 as analyte
T3 construct: domain: CR1; also called Chordin domain CR1
Method: as §1

[4] = biological target: BRIA receptor on C2C12 and ATDC5 cells; experiment: cell-based or functional assay
[5] = biological target: T4, Chordin CR3; experiment: BIAcore, immobilised Chordin CR3, BMP-2 as analyte
T4 construct: domain: CR3; also called Chordin domain CR3
Method: as §1

[6] = biological target: T5, Gremlin; experiment: BIAcore, immobilised Gremlin, BMP-2 as analyte
T5 construct: Bought (R&D systems)
Method: as §1

[7] = biological target: T4, Chordin CR3; experiment: BIAcore, immobilised Chordin CR3, mutein as analyte, against BMP-2 wild type
Method: as §1

[8] = biological target: T1, Activin receptor II ectodomain; experiment: BIAcore, immobilised ARII ectodomain, mutein as analyte, against BMP-2 wild type
Method: as §1

[9] = biological target: T6, Noggin/Fc; experiment: BIAcore, immobilised Noggin
T6 construct: Bought (R&D systems); construct not described; also called Noggin-Fc fusion protein
T6 sequence (Q13253 whole entry, species assumed, looked up): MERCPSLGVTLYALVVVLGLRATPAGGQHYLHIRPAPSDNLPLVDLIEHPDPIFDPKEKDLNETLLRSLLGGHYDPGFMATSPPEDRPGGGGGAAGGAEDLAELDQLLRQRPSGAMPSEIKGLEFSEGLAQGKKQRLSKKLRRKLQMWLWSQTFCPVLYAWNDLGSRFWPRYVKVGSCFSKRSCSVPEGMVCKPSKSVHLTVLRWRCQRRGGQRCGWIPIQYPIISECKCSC
Method: as §1

[10] = biological target: T6, Noggin/Fc; experiment: BIAcore, immobilised Noggin, mutein as analyte, against BMP-2 wild type
Method: as §1

[11] = biological target: T3, Chordin CR1; experiment: BIAcore, immobilised Chordin CR1, mutein as analyte, against BMP-2 wild type
Method: as §1

[12] = biological target: T5, Gremlin; experiment: BIAcore, immobilised Gremlin, mutein as analyte, against BMP-2 wild type
Method: as §1

[13] = biological target: T2, BRIBEC, extracellular domain of BMPR-IB; experiment: BIAcore, immobilised BRIB ectodomain, mutein as analyte, against BMP-2 wild type
Method: as §1

T2 sequence (P36898 14-126): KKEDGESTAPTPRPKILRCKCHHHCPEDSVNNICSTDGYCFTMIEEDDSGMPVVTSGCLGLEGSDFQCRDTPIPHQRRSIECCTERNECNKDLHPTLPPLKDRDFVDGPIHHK
T5 sequence (O70326 25-184): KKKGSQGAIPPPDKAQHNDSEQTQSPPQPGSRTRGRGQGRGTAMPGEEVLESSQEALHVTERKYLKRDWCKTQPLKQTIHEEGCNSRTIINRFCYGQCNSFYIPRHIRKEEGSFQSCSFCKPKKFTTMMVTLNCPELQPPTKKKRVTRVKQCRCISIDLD
T1 sequence (P27037 20-135): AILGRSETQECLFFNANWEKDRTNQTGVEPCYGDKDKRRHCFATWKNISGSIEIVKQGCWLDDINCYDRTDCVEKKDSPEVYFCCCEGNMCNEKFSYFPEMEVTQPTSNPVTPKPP

B1: BMP-2 wild type (ligand)
chain: QAKHKQRKRLKSSCKRHPLYVDFSDVGWNDWIVAPPGYHAFYCHGECPFPLADHLNSTNHAIVQTLVNSVNSKIPKACCVPTELSAISMLYLDENEKVVLKNYQDMVVEGCGCR
notes: also called hBMP-2; human BMP-2
Kd [1]: 14 nM | Kd [2]: 3.6 nM | Kd [3]: 61 nM | ED50 of induction of alkaline phosphatase (ALP) activity in ATDC5 cells [4]: 8 nM | ED50 of induction of alkaline phosphatase (ALP) activity in C2C12 cells [4]: 25 nM | Kd [5]: 67 nM | Kd [6]: 22 nM

B2: BMP-2 L51P (ligand)
chain: QAKHKQRKRLKSSCKRHPLYVDFSDVGWNDWIVAPPGYHAFYCHGECPFPPADHLNSTNHAIVQTLVNSVNSKIPKACCVPTELSAISMLYLDENEKVVLKNYQDMVVEGCGCR
notes: also called L51P mutein; BMP-2 proline mutein L51P
KD(mut)/KD(WT) [7]: 0.9 ratio | KD(Mut)/KD(WT) [8]: 2.3 ratio | Kd [9]: 0.5 nM | ED50 of induction of alkaline phosphatase (ALP) activity in ATDC5 cells [4]: > 1500 nM | ED50 of induction of alkaline phosphatase (ALP) activity in C2C12 cells [4]: > 1600 nM | KD(mut)/KD(WT) [10]: 0.27 ratio | KD(mut)/KD(WT) [11]: 0.85 ratio | KD(mut)/KD(WT) [12]: 0.55 ratio

B3: BMP-2 S69R (ligand)
chain: QAKHKQRKRLKSSCKRHPLYVDFSDVGWNDWIVAPPGYHAFYCHGECPFPLADHLNSTNHAIVQTLVNRVNSKIPKACCVPTELSAISMLYLDENEKVVLKNYQDMVVEGCGCR
notes: also called S69R mutein
KD(Mut)/KD(WT) [8]: 0.9 ratio

B4: BMP-2 D53A (ligand)
chain: QAKHKQRKRLKSSCKRHPLYVDFSDVGWNDWIVAPPGYHAFYCHGECPFPLAAHLNSTNHAIVQTLVNSVNSKIPKACCVPTELSAISMLYLDENEKVVLKNYQDMVVEGCGCR
KD(Mut)/KD(WT) [13]: 0.34 ratio | KD(Mut)/KD(WT) [8]: 1.2 ratio

B5: BMP-2 W28F (ligand)
chain: QAKHKQRKRLKSSCKRHPLYVDFSDVGFNDWIVAPPGYHAFYCHGECPFPLADHLNSTNHAIVQTLVNSVNSKIPKACCVPTELSAISMLYLDENEKVVLKNYQDMVVEGCGCR
notes: also called W28F mutein
KD(Mut)/KD(WT) [13]: 1.7 ratio | KD(Mut)/KD(WT) [8]: 1.2 ratio

B6: BMP-2 D53P (ligand)
chain: QAKHKQRKRLKSSCKRHPLYVDFSDVGWNDWIVAPPGYHAFYCHGECPFPLAPHLNSTNHAIVQTLVNSVNSKIPKACCVPTELSAISMLYLDENEKVVLKNYQDMVVEGCGCR
notes: also called BMP-2 proline mutein D53P
KD(mut)/KD(WT) [7]: 1.1 ratio | KD(Mut)/KD(WT) [13]: 10 ratio | KD(Mut)/KD(WT) [8]: 1.2 ratio | Kd [9]: 2.5 nM | ED50 of induction of alkaline phosphatase (ALP) activity in ATDC5 cells [4]: 140 nM | ED50 of induction of alkaline phosphatase (ALP) activity in C2C12 cells [4]: 330 nM | KD(mut)/KD(WT) [10]: 1.3 ratio | KD(mut)/KD(WT) [11]: 0.7 ratio | KD(mut)/KD(WT) [12]: 0.7 ratio

B7: BMP-2 Y103A (ligand)
chain: QAKHKQRKRLKSSCKRHPLYVDFSDVGWNDWIVAPPGYHAFYCHGECPFPLADHLNSTNHAIVQTLVNSVNSKIPKACCVPTELSAISMLYLDENEKVVLKNAQDMVVEGCGCR
KD(Mut)/KD(WT) [13]: 3.2 ratio | KD(Mut)/KD(WT) [8]: 1.4 ratio
